From paper PMC7809020 come the findings set out here.

In general, Kd refers to the free concentration of one partner at which half of the binding sites on the other are occupied at equilibrium, for simple one-to-one binding. Low values mean tighter binding, high ones weaker binding.

The target in test [1] is ATM (biolayer interferometry) (UniProt Q13315). Description: BLI. On the technique in general: BLI is a label-free optical method that tracks binding on a fibre tip over time.
For test [2] the target is unchanged. Description: BLI; in vitro; SPOP peptide bound to ATM, measured by diffracted light wavelength.

Sequence of SPOP wild-type peptide (O43791 whole entry, looked up, tested part not stated): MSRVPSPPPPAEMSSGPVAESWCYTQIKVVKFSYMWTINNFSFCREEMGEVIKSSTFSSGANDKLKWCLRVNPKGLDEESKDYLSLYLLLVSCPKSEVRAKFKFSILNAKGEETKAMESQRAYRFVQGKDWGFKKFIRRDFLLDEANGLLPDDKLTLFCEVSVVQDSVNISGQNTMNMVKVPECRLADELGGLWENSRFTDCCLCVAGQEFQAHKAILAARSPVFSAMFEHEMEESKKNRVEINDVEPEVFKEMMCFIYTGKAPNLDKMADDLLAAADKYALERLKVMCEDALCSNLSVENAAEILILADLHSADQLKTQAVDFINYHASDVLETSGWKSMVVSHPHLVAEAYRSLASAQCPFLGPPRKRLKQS

“SPOP S119N mutant peptide (from UniProt O43791)” came in with a Kd in test [1] of 45.5 µM. The substance SPOP wild-type peptide showed an amount bound relative to the mutant peptide in test [2] of 2 fold. “SPOP wild-type peptide (from UniProt O43791)” gave a Kd in test [1] of 0.0698 µM.
